Assay results published in patent US20250154240A1, “ANTI-HUMAN CXCL1 ANTIBODY” (CHIOME BIOSCIENCE INC., priority 2022, published 2025).

Experiments:
[1] = system: migration of HuCXCR2-expressing cells toward HuCXCL1; test: Migration assay (Boyden chamber chemotaxis) of HuCXCR2-expressing cells toward HuCXCL1; format: cell-based, human; conditions: HuCXCL1 200 ng per ml in lower chamber
Procedure: The 80 clones with neutralizing activity against HuCXCL1 were evaluated for their inhibitory activity against the migration of HuCXCR2-expressing cells toward HuCXCL1.
Cell chemotaxis was measured by Boyden chamber assay, and QCM Chemoraxis Cell Migration Assay (Sigma-Aldrich Corporation) was purchased and used as an assay kit. AequoScrenn/CXCR2 cells were used as HuCXCR2-expressing cells. An isotype control antibody and a goat anti-HuCXCL1 polyclonal antibody (hereinafter referred to as AF275) were purchased from R&D Systems and used.
The HuCXCR2-expressing cells were cultured overnight at 37° C. in a serum-free culture medium, and then suspended in the assay buffer and adjusted to 2×10^6 cells per ml. The upper chamber of a Boyden chamber was filled with the HuCXCR2-expressing cell suspension, while the lower chamber was filled with the assay buffer alone or a solution containing HuCXCL1 in an amount of 200 ng per ml with or without a purified antibody, followed by incubation overnight at 37° C.
After incubation, the upper chamber was washed with PBS, placed into a new lower chamber containing a Cell Detachment Solution (Sigma-Aldrich Corporation), and then allowed to stand at 37° C. for 30 minutes to detach the migrated cells adhered to the bottom of the membrane in the upper chamber.
The migrated cell suspension was supplemented with 4× Lysis Buffer (Sigma-Aldrich Corporation) in a volume of 75 μL per well and allowed to stand at room temperature for 20 minutes, followed by measurement of fluorescence at an excitation wavelength of 480 nm and a fluorescence wavelength of 520 nm. The above about 80 clones were screened and evaluated for their inhibitory activity against the migration of CXCR2 cells.

[2] = system: OCUM-2MLN gastric cancer cell line; test: Efficacy evaluation in a model with OCUM-2MLN orthotopic transplantation; format: in vivo, mouse; conditions: 20 mg/kg intraperitoneally twice a week, 3 weeks, compared to PBS control
Procedure: Among the candidate antibodies, 3 types of antibodies (4A-2F7, 5A-5E11 and 028-8-12) were evaluated for their in vivo antitumor activity in a xenograft model with OCUM-2MLN orthotopic transplantation. Procedures for the evaluation are shown below.
For use as mice, female nude mice (BALB/cAJcl-nu/nu) at 5 to 6 weeks of age were purchased from Charles River Japan, Inc. As human cancer cells, a gastric cancer cell line, OCUM-2MLN, was used.
OCUM-2MLN cells were cultured in D-MEM medium (FUJIFILM Wako Pure Chemical Corporation, Japan) supplemented with 10% fetal bovine serum (FBS; NICHIREI BIOSCIENCE), 1/100 volumes of a penicillin-streptomycin mixture (FUJIFILM Wako Pure Chemical Corporation, Japan) and 1/100 volumes of a sodium pyruvate solution (SIGMA-ALDRICH). The cells to be transplanted were detached with a 0.05 w/v % trypsin/0.53 mmol/L EDTA 4Na solution (FUJIFILM Wako Pure Chemical Corporation, Japan) and washed with PBS, and 1× 10^6 cells per mouse were transplanted into the gastric wall of each mouse. […] After 3 weeks had passed from the transplantation, the mice were sacrificed, and the short- and long-axis diameters of tumors formed in their gastric walls were each measured with a caliper. The tumor size was calculated according to the following: short-axis diameter (mm)×long-axis diameter (mm).

[3] = biological target: T1, human CXCL5 (Homo sapiens, UniProt P42830); test: Binding to human CXCL5
T1 sequence (P42830 37-114): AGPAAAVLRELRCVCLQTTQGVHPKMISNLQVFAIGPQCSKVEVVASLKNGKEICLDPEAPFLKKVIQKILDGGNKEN

[4] = system: CXCR2-expressing cells; test: In vivo CXCR2-expressing cell migration inhibitory activity, treatment model with OCUM-12 orthotopic transplantation; set-up: species or system mouse
Source text: The stomachs after measurement were excised and fixed overnight at room temperature with a 10% neutral buffered formalin solution (Wako Pure Chemical Industries, Ltd., Japan), followed by replacement with PBS. Then, paraffin embedding and section preparation were outsourced to Applied Medical Research Laboratory, Japan. The prepared gastric tumor sections were immunohistologically stained with an anti-CXCR2 antibody to evaluate in vivo CXCR2 cell migration inhibitory activity. The sections were deparaffinized and rehydrated, and then treated to inactivate endogenous peroxidase. After antigen activation treatment, the sections were blocked with PBS containing 2% skimmed milk and 0.1% Tween-20 (hereinafter referred to as the blocking solution), and reacted overnight at 4° C. with an anti-CXCR2 antibody (Biorbyt) as a primary antibody, which had been diluted 1667-fold with the blocking solution. After washing with PBS containing 0.1% Tween-20, the sections were reacted at room temperature for 1 hour with an HRP-labeled goat anti-rabbit IgG antibody (Abcam) as a secondary antibody. […]
The dose-response relationship between antibody dose and in vivo antitumor activity or CXCR2 migration inhibitory activity was evaluated in a xenograft treatment model with OCUM-12 orthotopic transplantation. […] After 4 weeks had passed from the transplantation, the mice were sacrificed and evaluated.

B1: 028-8-12: human antibody against CXCL1 from the human ADLib technique; VH SEQ ID NO: 25, VL SEQ ID NO: 29 (antibody, listed as Gallus gallus, V domains shown)
VH: EVQLLESGGGLVQPGGSLRLSCAASGFTFSELSMSWVRQAPGKGLEWVSAISGSGGSTYYADSVKGRFTISRDNSKNTLYLQMNSLRAEDTAVYYCAREGGRLEPYYYYYAMDVWGQGTPVTVSS
VL: DIQMTQSPSSLSASVGDRVTITCRASQSISDNLHWYQQKPGKAPKLLIYDASNLESGVPSRFSGSGSGTDFTLTINSLQPEDFATYYCQQYYSTPLTFGQGTKLEIK
CXCR2-expressing cell migration inhibitory activity Chemotaxis assay [1]: ∘

B2: 4A-2F7: mouse monoclonal anti-HuCXCL1 antibody clone; VH SEQ ID NO: 9, VL SEQ ID NO: 13 (antibody, listed as Mus musculus, V domains shown)
VH: QVTLKESGPGILKPSQTLSLTCSFSGFSLSTSGMGVDWIRQPSGKGLEWLAHIWWDDDKYYNPSLKSQLTISKDTSRNQVFLKITSVDTADTATYYCARSYGYDMDYYAMDYWGQGTSVTVSS
VL: DIQMTQSPSSLSASLGERVSLTCRASQEISGYLSWLQQKPDGTIKRLIYAASTLDSGVPKRFSGSRSGSDYSLTISSLESEDFADYYCLQYASYPPWTFGGGTKLEIK
CXCR2-expressing cell migration inhibitory activity Chemotaxis assay [1]: ∘ | Antitumor activity (tumor growth, tumor size) [2]: significantly suppress tumor growth | Binding to human CXCL5 [3]: also bind

B3: Hu5A-5E11: humanized antibody VH1/VL1; VH SEQ ID NO: 76, VL SEQ ID NO: 78 (antibody, V domains shown)
VH: QVQLVQSGAEVKKPGSSVKVSCKASGYAFSDYWMNWVRQAPGQGLEWIGQIYPGSGDTNYNAKFKGKGTITADKSTSTAYMELSSLRSEDTAVYYCARERDYDVAMDYWGQGTTVTVSS
VL: DIQMTQSPSSLSASVGDRVTITCKASQDINKYIAWFQQKPGKAPKLVIHYTSILQPGVPSRFSGSGSGTDYTFTISSLQPEDIATYYCLQYDNLPWTFGGGTKVEIK
Dose at which the migration suppressive effect tended to reach a plateau [4]: ≥ 60 μg/head

B4: 5A-5E11: mouse monoclonal anti-HuCXCL1 antibody clone; VH SEQ ID NO: 17, VL SEQ ID NO: 21 (antibody, listed as Mus musculus, V domains shown)
VH: QVQLQQSGAELVRPGSSVKISCKASGYAFSDYWMNWVKQRPGQGLEWIGQIYPGDGDTNYNGKFKGKGTLTADKSSSTAYMQLNSLTSEDSAVYFCARERDYDVAMDYWGQGTSVTVSS
VL: DIQMTQSPSSLSASLGGKVTITCKASQDINKYIAWFQHKPGKGPRLVIHYTSILQPGIPSRFSGVGSGRDYSFSIRNLEPEDIATYYCLQYDNLPWTFGGGTKLEIK
CXCR2-expressing cell migration inhibitory activity Chemotaxis assay [1]: ∘ | Antitumor activity (tumor growth, tumor size) [2]: significantly suppress tumor growth | Binding to human CXCL5 [3]: also bind

B5: 1A-7H10: mouse monoclonal anti-HuCXCL1 antibody clone; VH SEQ ID NO: 1, VL SEQ ID NO: 5 (antibody, listed as Mus musculus, V domains shown)
VH: QVQLKESGPVLVAPSQSLSITCSVSGFSSTTYGVHWVRQPPGQGLEWLGVIWAGGSTNYNSALMSRLSISKDNSKSQVFLKMNSLQTDDTAMYYCATQYHYPFAYWGQGTLVTVSA
VL: NIVMTQSPKSMSMSVGERVTLSCKASENVGIYVSWYQQKPEQSPKLMIYGASNRNTGVPDRFTGSGSATDFTLTISSVQAEDLADYYCGQSYSYPLTFGAGTKLELK
CXCR2-expressing cell migration inhibitory activity Chemotaxis assay [1]: ∘
